Reference: publication PMC3463532

Tests used:
[1] = molecular target: Dictyostelium discoideum p97, purified recombinant wild-type (D. discoideum) (UniProt P90532); test: native gel or EMSA; blue native PAGE (BN-PAGE) of the affinity purified recombinant protein, Coomassie staining; SDS-PAGE beside it; monomers to hexamer
[2] = molecular target: Dictyostelium discoideum p97^R155C, purified recombinant (D. discoideum) (UniProt P90532); test: as above

| stoichiometry N [1] | stoichiometry N [2] | Substance |
| --- | --- | --- |
| 6 |  | Dictyostelium discoideum p97, purified recombinant wild-type (from UniProt P90532 1-793) (natural protein) |
|  | 6 | Dictyostelium discoideum p97^R155C, purified recombinant (from UniProt P90532 1-793) (natural protein) |
